Series [1] deals with wheat germ rhodamine-calmodulin (r-CAM) (UniProt P04464). Nature of the series: single-molecule two-colour TIRFM, immobilised holoenzyme. The conditions noted are these: reference: T287A holoenzyme (T306, T307 intact); sites T306,T307.
Series [2] concerns the molecule itself. The experiment in a line: single-molecule stepwise photobleaching of Venus (TIRF microscopy); V-CaMKII held on a coverslip by GFP antibody; photobleaching steps in the Venus channel counted with a step-finder algorithm to give subunit stoichiometry (S_CaMKII).

In the case of “CaMKIIβ (Venus-CaMKIIβ) (from UniProt P28652) T287A/T306A/T307A holoenzyme”, the “other: τ+/τ− ratio” value in series [1] is on record as “stronger; reference 1.76”.

B1: Venus-CaMKIIβ T287.306-307A holoenzyme (enzyme, mouse, UniProt P28652 1-542, looked up)
chain: MATTVTCTRFTDEYQLYEDIGKGAFSVVRRCVKLCTGHEYAAKIINTKKLSARDHQKLEREARICRLLKHSNIVRLHDSISEEGFHYLVFDLVTGGELFEDIVAREYYSEADASHCIQQILEAVLHCHQMGVVHRDLKPENLLLASKCKGAAVKLADFGLAIEVQGDQQAWFGFAGTPGYLSPEVLRKEAYGKPVDIWACGVILYILLVGYPPFWDEDQHKLYQQIKAGAYDFPSPEWDTVTPEAKNLINQMLTINPAKRITAHEALKHPWVCQRSTVASMMHRQEAVECLKKFNARRKLKGAILAAMLATRNFSVGRQTTAPATMSTAASGTTMGLVEQAKSLLNKKADGVKPQTNSTKNSSAITSPKGSLPPAALEPQTTVIHNPVDGIKESSDSTNTTIEDEDAKARKQEIIKTTEQLIEAVNNGDFEAYAKICDPGLTSFEPEALGNLVEGMDFHRFYFENLLAKNSKPIHTTILNPHVHVIGEDAACIAYIRLTQYIDGQGRPRTSQSEETRVWHRRDGKWQNVHFHCSGAPVAPLQ
notes: CaMKII β isoform with T to A substitutions at T287, T306 and T307; also called T287.T306.307A; phosphorylation-defective holoenzyme; source: E. coli BL21/Rosetta or BL21/C41, cotransformed with a protein phosphatase plasmid; copies: 14
In the case of B1, the binding result in series [2] is on record as “binds”.
